Measured values from patent publication US20220235134A1 (SINGLE CELL TECHNOLOGY, published 2022).
Substitutions are numbered along the chain they refer to.

T1: B7-H3, native protein on the cell surface of A498 and SK-MES-1 cells (UniProt Q5ZPR3 29-534, limits assumed)
T1 sequence (looked up): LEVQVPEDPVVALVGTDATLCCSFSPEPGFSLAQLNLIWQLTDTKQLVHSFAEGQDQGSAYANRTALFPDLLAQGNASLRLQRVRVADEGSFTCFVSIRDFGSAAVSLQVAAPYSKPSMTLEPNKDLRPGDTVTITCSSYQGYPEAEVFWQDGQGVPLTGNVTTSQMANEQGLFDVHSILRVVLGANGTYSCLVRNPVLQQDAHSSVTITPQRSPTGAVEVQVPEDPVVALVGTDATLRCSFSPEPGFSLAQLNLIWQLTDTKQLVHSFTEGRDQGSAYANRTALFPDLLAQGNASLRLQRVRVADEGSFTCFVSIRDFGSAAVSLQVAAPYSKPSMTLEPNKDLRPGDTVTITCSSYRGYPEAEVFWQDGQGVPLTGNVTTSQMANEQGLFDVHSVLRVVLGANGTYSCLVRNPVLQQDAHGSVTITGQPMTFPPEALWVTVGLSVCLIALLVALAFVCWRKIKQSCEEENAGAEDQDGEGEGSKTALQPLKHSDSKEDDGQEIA

T2: Recombinant human B7-H3 (human, UniProt Q5ZPR3 29-466, limits assumed)
T2 construct: also called CD276; B7RP-2
T2 sequence: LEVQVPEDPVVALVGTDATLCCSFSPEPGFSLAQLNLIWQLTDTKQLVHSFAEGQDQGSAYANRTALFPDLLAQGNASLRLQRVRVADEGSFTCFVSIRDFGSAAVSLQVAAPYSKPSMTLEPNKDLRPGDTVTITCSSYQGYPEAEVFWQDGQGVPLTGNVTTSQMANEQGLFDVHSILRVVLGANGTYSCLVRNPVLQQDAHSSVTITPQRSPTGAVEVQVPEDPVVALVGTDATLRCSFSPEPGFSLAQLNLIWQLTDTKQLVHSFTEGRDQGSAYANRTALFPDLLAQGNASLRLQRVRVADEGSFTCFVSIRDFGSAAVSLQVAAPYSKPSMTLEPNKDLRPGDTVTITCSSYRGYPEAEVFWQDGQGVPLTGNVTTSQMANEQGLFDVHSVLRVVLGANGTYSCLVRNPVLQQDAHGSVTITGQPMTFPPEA

B1: SCT-Da192 (antibody, V domains shown)
VH: EVQLQQSGPELVKPGASVKISCKTSGYTFTEYTMHWVKQSHGKSLEWIGVINPNNGGTTYNQKFKGKATLTVDKSSSTAYMELRSLTSEDSAVYYCARPHSLLRLRREFDYWGQGTTLTVSS
VL: QIVLTQSPALMSASPGEKVTMTCSASSSVSYMYWYQQKPRSSPKPWIYLTSNLASGVPARFSGSGSGTSYSLTISSMEAEDAATYYCQQWSSNPLTFGAGTKLELK
B2: SCT-Da333 (antibody, V domains shown)
VH: QVQLQQSGPELVRPGVSVKISCKGSGYTFTDYAVHWVKQSHAKSLEWIGVINTYSGNTYYNLHFKGKATMTVDKSSSTAYMELARLTSEDSAIYYCARRRGSHRDAYFDYWGQGTTLTVSS
VL: DIVMTQSHKFMSTSVGDRVSITCRASQDVSTAVAWYQQKPGQSPKLLIYSASYRYTGVPDRFTVSGSGTDFTFTISSVQAEDLAVYYCQQHYSTPWTFGGGTKLEIK
B3: SCT-Da250 (antibody, V domains shown)
VH: QGQMQQSGAELVKPGASVRLSCKTSGFTFSSFYISWLKQKPGQSLEWIAWIYAGPGYTSYNQKFTGKAQLTVDTSSSTAYMQFSSLTTEDSAIYYCARHVGRQRGYFDVWGAGTTVTVSS
VL: B2 VL with R24K, R61H
B4: SCT-Da182 (antibody, V domains shown)
VH: EVQLQQSGPELVKPGASMKISCKVSGFSFTGYTMNWVKQSHGKNLEWIGLINTYNGGTFYNQKFKAKATLTVDKSSSTAHMELLSLTSEDSAVYYCARSPGRYSMDYWGQGTSVTVSS
VL: DIVLTQSPASLAVSLGQRATISCKASQSVDYNGYSYLNWYQQKPGQPPKLLIYPASNLESGIPARFSGSGSGTDFTLNIHPVEEEDAATYYCQQSKEDPYTFGGGTKLEIK
B5: SCT-Da148 (antibody, V domains shown)
VH: EVQLQQSGAELVKPGASVKLSCTASGVNIKDTYIHWVKQRPEQGLEWIGRIDPANGNRKYDPKFQGKATITADSSSNTAYLQLSSLTSEDTAVYYCARDGYYAPGYWGQGTTLTVSS
VL: DIVMTQSQKFMSTSVGDRVSVTCKASQNVGTDVAWYQQKPGQSPKLLIYSASYRFSGVPDRFTGSGSGTDFSLAISNVQSEDLAEYFCQQYNSYPYTFGGGAKLEIK

biological target: T1, B7-H3, native protein on the cell …; assay: cell-based or functional assay

| Binder | ADCC (reporter) EC50, A498 target cells [nM] | ADCC (reporter) EC50, SK-MES-1 target cells [nM] |
| --- | --- | --- |
| B1 | 1.1 | 0.9 |
| B2 | 23.3 | 32.8 |
| B3 | 2.4 | 2.4 |
| B4 | 4.5 | 4.6 |
| B5 | 3.6 | 4.2 |

biological target: Recombinant cyno B7-H3 (cyno); assay: ELISA, cyno B7-H3 coated on plate
Protocol: (§1) The recombinantly expressed antibodies were used to assess binding activity to B7-H3 by conventional ELISA according to the known art. Recombinant human B7-H3 and cyno B7-H3 were coated onto ELISA plates to detect binding at serially diluted concentrations of the anti-B7-H3 antibody preparations. The binding affinity of select anti-B7-H3 antibodies were measured on a surface plasmon resonance (SPR) instrument, such as a Biacore T200™, against human B7-H3 (table 3) and cyno B7-H3 (table 4). Cell lines expressing B7-H3, A498 and SK-MES-1, were used to assess binding by anti-B7-H3 antibodies on the native protein on the cell surface by flow cytometry according to the known art. […] In addition, the antibody-dependent cellular cytotoxicity (ADCC) activity of select anti-B7-H3 antibodies were assessed using an engineered surrogate effector cell line, kit reagents, and a luminometer (Promega, Madison, Wis.) on A498 and SK-MES-1 as target cells in table 2 under the heading “ADCC (reporter) and FIGS. 1C and 1D. Finally, specificity of each of the antibodies examined thus far were assessed by interacting with proteins from the B7 family (human B7-1, B7-2, PD-L2, PD-L1, B7-H2, B7-H4, B7-H5, B7-H6, B7-H7) against B7-H3 using ELISA. The data were plotted for each antibody on FIGS. 3A through 3E.

| Binder | EC50 [nM] |
| --- | --- |
| B1 | 0.0176 |
| B2 | 3.05 |
| B3 | 0.0237 |
| B4 | 0.00882 |
| B5 | 0.0114 |

biological target: T1, B7-H3, native protein on the cell …; assay: flow cytometry (FACS) on A498 cells
Protocol: as §1

| Binder | EC50 [nM] |
| --- | --- |
| B1 | 2.62 |
| B2 | 3.29 |
| B3 | 1.43 |
| B4 | 3.7 |
| B5 | 1.6 |

biological target: T1, B7-H3, native protein on the cell …; assay: flow cytometry (FACS) on SK-MES-1 cells
Protocol: as §1

| Binder | EC50 [nM] |
| --- | --- |
| B1 | 2.32 |
| B2 | 1.94 |
| B3 | 1.46 |
| B4 | 4.09 |
| B5 | 1.49 |

biological target: T2, Recombinant human B7-H3; assay: ELISA, recombinant human B7-H3 coated on plate
Protocol: as §1

| Binder | EC50 [nM] |
| --- | --- |
| B1 | 0.0109 |
| B2 | 0.00833 |
| B3 | 0.0226 |
| B4 | 0.0105 |
| B5 | 0.0076 |

biological target: Recombinant cyno B7-H3 (cyno); assay: SPR (such as Biacore T200), against cyno B7-H3
Protocol: as §1

| Binder | Kd [nM] | koff [s⁻¹] | kon [M⁻¹ s⁻¹] |
| --- | --- | --- | --- |
| B1 | 1.64 | 0.000505 | 307000 |
| B3 | 0.398 | 0.000361 | 905000 |
| B4 | 1.22 | 0.000283 | 232000 |
| B5 | 0.503 | 0.000368 | 731000 |

biological target: T2, Recombinant human B7-H3; assay: SPR (such as Biacore T200), against human B7-H3
Protocol: as §1

| Binder | Kd [nM] | koff [s⁻¹] | kon [M⁻¹ s⁻¹] |
| --- | --- | --- | --- |
| B1 | 23.8 | 0.00203 | 85100 |
| B2 | 380 | 0.0512 | 135000 |
| B3 | 2.75 | 0.0011 | 402000 |
| B4 | 10.9 | 0.00101 | 92700 |
| B5 | 6.41 | 0.00234 | 366000 |
